In patent publication US20210061914A1 (published 2021):
Numbering of substitutions follows the chain as printed.

B1: scFv R3G8-P5G08 (scFv, V domains shown)
VH: QVQLVQSGAEVKKPGASVKVSCKASGYTFTSNYMHWVRQAPGQGLEWMGWMNPNSGNTGYAQKFQGRVTMTRDTSTSTVYMELSSLRSEDTAVYYCARGLYGDYFLYYGMDVWGQGTTVTVSS
VL: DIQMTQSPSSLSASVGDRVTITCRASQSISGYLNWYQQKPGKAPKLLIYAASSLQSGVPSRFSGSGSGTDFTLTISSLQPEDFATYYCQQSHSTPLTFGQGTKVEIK
notes: scFv
B2: scFv G8-P2B05 (scFv, V domains shown)
VH: EVQLLESGGGLVQPGGSLRLSCAASGFDFSIYSMNWVRQAPGKGLEWVSAISGSGGSTYYADSVKGRFTISRDNSKNTLYLQMNSLRAEDTAVYYCASNGNYYGSGSYYNYWGQGTLVTVSS
VL: DIQMTQSPSSLSASVGDRVTITCRASQSISRWLAWYQQKPGKAPKLLIYAASSLQSGVPSRFSGSGSGTDFTLTISSLQPEDFATYYCQQYSTYPITIGQGTKVEIK
notes: scFv
B3: scFv R3G8-P2C10 (scFv, V domains shown)
VH: QVQLVQSGAEVKKPGASVKVSCKASGYTFTSYYMHWVRQAPGQGLEWMGWINPYSGGTNYAQKFQGRVTMTRDTSTSTVYMELSSLRSEDTAVYYCAKGGIYYGSGSYPSWGQGTLVTVSS
VL: B2 VL with S28D, I29V, R31T, Y91S, S92H, T93S, Y94T, I96Q, I98F
notes: scFv
B4: scFv R3G8-P2E04 (scFv, V domains shown)
VH: QVQLVQSGAEVKKPGSSVKVSCKASGGTFSSYGVSWVRQAPGQGLEWMGWISPYSGNTDYAQKFQGRVTITADESTSTAYMELSSLRSEDTAVYYCARGLYYMDVWGKGTTVTVSS
VL: DIQMTQSPSSLSASVGDRVTITCRASQSISSWLAWYQQKPGKAPKLLIYDASNLETGVPSRFSGSGSGTDFTLTISSLQPEDFATYYCQQSYSTPLTFGGGTKLEIK
notes: scFv
B5: scFv R3G8-P4F05 (scFv, V domains shown)
VH: B1 VH with T30S, S31N, N32M, M34L, M51I, S55T, N57D, G59N, K63T, T118K
VL: B4 VL with S28G, S31N, W32Y, D50A, N53T, E55Q, T56S, L104V
notes: scFv
B6: scFv G8-P1D02 (scFv, V domains shown)
VH: EVQLLESGGGLVQPGGSLRLSCAASGFTFSSYWMSWVRQAPGKGLEWVSSISGRGDNTYYADSVKGRFTISRDNSKNTLYLQMNSLRAEDTAVYYCARASGSGYYYYYGMDVWGQGTTVTVSS
VL: DIQMTQSPSSLSASVGDRVTITCQASQDISNYLNWYQQKPGKAPKLLIYAASSLQSGVPSRFSGSGSGTDFTLTISSLQPEDFATYYCQQSYSAPYTFGGGTKVEIK
notes: scFv
B7: scFv R3G8-P5C03 (scFv, V domains shown)
VH: QVQLVQSGAEVKKPGASVKVSCKASGYTFTSYYMHWVRQAPGQGLEWMGWMNPNSGNTGYAQKFQGRVTMTRDTSTSTVYMELSSLRSEDTAVYYCARGLLGFGEFLTYGMDVWGQGTLVTVSS
VL: B4 VL with S28G, S31N, D50A, N53T, E55Q, T56S, S91T, L96W, G100Q
notes: scFv
B8: scFv G8-P1C11 (scFv, V domains shown)
VH: QVQLVQSGAEVKKPGASVKVSCKASGGTLSSYPINWVRQAPGQGLEWMGWISTYSGHADYAQKLQGRVTMTRDTSTSTVYMELSSLRSEDTAVYYCARSYDYGDYLNFDYWGQGTLVTVSS
VL: B6 VL with A94I, Y96P, E105D
notes: scFv
B9: scFv R3G8-P5F02 (scFv, V domains shown)
VH: QVQLVQSGAEVKKPGASVKVSCKASGYTFTGYYIHWVRQAPGQGLEWMGVINPSGGSTTYAQKLQGRVTMTRDTSTSTVYMELSSLRSEDTAVYYCARDRDSSWTYYYYGMDVWGQGTTVTVSS
VL: EIVMTQSPATLSVSPGERATLSCRASQSVGNSLAWYQQKPGQAPRLLIYGASTRATGIPARFSGSGSGTEFTLTISSLQSEDFAVYYCQQYGSSPYTFGQGTKVEIK
notes: scFv
B10: scFv G8-P2C11 (scFv, V domains shown)
VH: QVQLVQSGAEVKKPGASVKVSCKASGYTFTSYAMNWVRQAPGQGLEWMGWINPNSGGTNYAQKFQGRVTMTRDTSTSTVYMELSSLRSEDTAVYYCAKDPFWSGHYYYYGMDVWGQGTTVTVSS
VL: not shown
notes: scFv
B11: scFv G8-P1H08 (scFv, V domains shown)
VH: QVQLVQSGAEVKKPGASVKVSCKASGYTFGNYFMHWVRQAPGQGLEWMGMVNPSGGSETFAQKFQGRVTMTRDTSTSTVYMELSSLRSEDTAVYYCAASTWIQPFDYWGQGTLVTVSS
VL: B4 VL with S28G, S30N, W32Y, S91H, Y92N, T94Y, L96P, G100Q
notes: scFv
B12: scFv G8-P1C01 (scFv, V domains shown)
VH: QVQLVQSGAEVKKPGASVKVSCKASGGTFSSHAISWVRQAPGQGLEWMGVIIPSGGTSYTQKFQGRVTMTRDTSTSTVYMELSSLRSEDTAVYYCARGDYYDSSGYYFPVYFDYWGQGTLVTVSS
VL: B4 VL with S28N, S30Y, S31T, W32Y, A34N, S91A, Y92N, S93G, T94F, L104V
notes: scFv
B13: scFv G8-P2E06 (scFv, V domains shown)
VH: QVQLVQSGAEVKKPGASVKVSCKASGYTLTTYYMHWVRQAPGQGLEWMGWINPNSGGTNYAQKFQGRVTMTRDTSTSTVYMELSSLRSEDTAVYYCARAVYYDFWSGPFDYWGQGTLVTVSS
VL: B6 VL with Q24R, D28G, Y32S, N34A, S91A, Y92N, A94F, Y96W, G100Q, V104L
notes: scFv
B14: scFv G5R4-P2H8 (scFv, V domains shown)
VH: EVQLLESGGGLVQPGGSLRLSCAASGFTFTSYSMHWVRQAPGKGLEWVSSITSFTNTMYYADSVKGRFTISRDNSKNTLYLQMNSLRAEDTAVYYCAKDLGSYGGYYWGQGTLVTVSS
VL: not shown
notes: scFv
B15: scFv G5-P4E04 (scFv, V domains shown)
VH: QVQLVQSGAEVKKPGASVKVSCKASGGTFSSYGISWVRQAPGQGLEWMGWINPNSGVTKYAQKFQGRVTMTRDTSTSTVYMELSSLRSEDTAVYYCARGDYYFDYWGQGTLVTVSS
VL: B6 VL with Q24R, D28S, N31R, Y32F, A50G, S53R, L54P, A94T, Y96L, G100Q
notes: scFv
B16: scFv G5-P1C12 (scFv, V domains shown)
VH: QVQLVQSGAEVKKPGSSVKVSCKASGGTFSNFGVSWLRQAPGQGLEWMGGIIPILGTANYAQKFQGRVTITADESTSTAYMELSSLRSEDTAVYYCATPTNSGYYGPYYYYGMDVWGQGTTVTVSS
VL: B4 VL with D50A, N53T, E55Q, T56S, T94I, L104V
notes: scFv
B17: scFv G5-P1B12 (scFv, V domains shown)
VH: EVQLLESGGGLVQPGGSLRLSCAASGFTFSNSDMNWVRQAPGKGLEWVASISSSGGYINYADSVKGRFTISRDNSKNTLYLQMNSLRAEDTAVYYCAKVNWNDGPYFDYWGQGTLVTVSS
VL: B2 VL with R31S, Y91A, S92N, T93S, Y94F, I96L, I98F, Q100G
notes: scFv
B18: scFv G5R4-P4A07 (scFv, V domains shown)
VH: QVQLVQSGAEVKKPGASVKVSCKASGYTFTSYYMHWVRQAPGQGLEWMGWMNPNSGNTGYAQKFQGRVTMTRDTSTSTVYMELSSLRSEDTAVYYCARELPIGYGMDVWGQGTTVTVSS
VL: not shown
notes: scFv
B19: scFv G5R4-P3G05 (scFv, V domains shown)
VH: QVQLVQSGAEVKKPGASVKVSCKASGYTFTNYYMHWVRQAPGQGLEWMGIINPSGGSTSYAQKFQGRVTMTRDTSTSTVYMELSSLRSEDTAVYYCARSWFGGFNYHYYGMDVWGQGTTVTVSS
VL: B6 VL with Q27E, Y32H, A50D, S52L, S91A, Y92N, A94F, Y96F, G100P, E105D
notes: scFv
B20: scFv G5R4-P1H11 (scFv, V domains shown)
VH: EVQLLESGGGLVKPGGSLRLSCAASGFTFSDYYMSWVRQAPGKGLEWVSYISSSSSYTNYADSVKGRFTISRDDSKNTLYLQMNSLKTEDTAVYYCARDVVANFDYWGQGTLVTVSS
VL: B9 VL with G30S, N31S, S32N, G50A, T53A, T56S, S94W, Y96R
notes: scFv
B21: scFv G5R4-P4B01 (scFv, V domains shown)
VH: QVQLVQSGAEVKKPGSSVKVSCKASGGTFSSYAISWVRQAPGQGLEWMGGIIPIVGTANYAQKFQGRVTITADESTSTAYMELSSLRSEDTAVYYCARGGSYYYYGMDVWGQGTTVTVSS
VL: not shown
notes: scFv
B22: scFv G5R4-P1D06 (scFv, V domains shown)
VH: QVQLVQSGAEVKKPGASVKVSCKASGYTFTSYDINWVRQAPGQGLEWMGWINPNSGDTKYSQKFQGRVTMTRDTSTSTVYMELSSLRSEDTAVYYCARDGTRYYGMDVWGQGTTVTVSS
VL: not shown
notes: scFv
B23: scFv G5R4-P2B10 (scFv, V domains shown)
VH: QVQLVQSGAEVKKPGASVKVSCKASGGTFSSYAISWVRQAPGQGLEWMGWMNPDSGSTGYAQRFQGRVTMTRDTSTSTVYMELSSLRSEDTAVYYCARGHSSGWYYYYGMDVWGQGTTVTVSS
VL: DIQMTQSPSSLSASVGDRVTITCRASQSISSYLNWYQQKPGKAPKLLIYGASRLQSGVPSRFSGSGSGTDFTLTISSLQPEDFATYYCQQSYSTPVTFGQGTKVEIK
notes: scFv

target: HLA-A*02:01_… (HLA-PEPTIDE target G8), soluble (human, enzymatically biotinylated (BirA) for screening and BLI); assay: scFv PPE ELISA

Fold selective binding, target pHLA vs minipool of negative control pHLAs, ≥ 3 fold:
B1
B2
B3
B4
B5
B6
B7
B8
B9
B10
B11
B12
B13

target: HLA-B*35:01_… (HLA-PEPTIDE target G5), soluble (human, enzymatically biotinylated (BirA)); assay: scFv PPE ELISA

Fold selective binding, target pHLA vs minipool of negative control pHLAs, ≥ 3 fold:
B14
B15
B16
B17
B18
B19
B20
B21
B22
B23
